Reference: patent US20230038638A1, “COMPLEMENT FACTOR I-RELATED COMPOSITIONS AND METHODS” (published 2023)
Positions count from the first letter of the chain named.

Experiments:
human C4b (human) [1] = biological target: T1, human C4b (human) (UniProt P0C0L5)
T1 sequence: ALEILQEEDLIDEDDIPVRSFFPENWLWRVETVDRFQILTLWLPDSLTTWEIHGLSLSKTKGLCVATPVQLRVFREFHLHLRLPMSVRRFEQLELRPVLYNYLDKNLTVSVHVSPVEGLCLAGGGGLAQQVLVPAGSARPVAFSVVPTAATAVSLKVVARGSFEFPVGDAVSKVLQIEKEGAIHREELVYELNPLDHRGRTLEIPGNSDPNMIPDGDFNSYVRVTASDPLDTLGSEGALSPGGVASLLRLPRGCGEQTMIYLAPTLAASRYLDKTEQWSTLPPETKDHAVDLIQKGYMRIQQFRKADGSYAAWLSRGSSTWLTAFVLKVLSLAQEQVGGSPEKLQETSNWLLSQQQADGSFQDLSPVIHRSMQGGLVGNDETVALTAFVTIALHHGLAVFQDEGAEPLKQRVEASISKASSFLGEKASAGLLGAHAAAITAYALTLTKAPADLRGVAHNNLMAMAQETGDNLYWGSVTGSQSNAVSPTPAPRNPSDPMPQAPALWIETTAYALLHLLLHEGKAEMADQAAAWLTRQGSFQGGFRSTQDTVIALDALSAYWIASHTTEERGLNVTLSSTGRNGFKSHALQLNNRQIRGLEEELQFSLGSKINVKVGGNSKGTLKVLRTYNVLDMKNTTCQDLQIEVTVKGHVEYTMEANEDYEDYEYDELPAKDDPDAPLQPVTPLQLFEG

[2] = biological target: soluble human C3b (human) (UniProt P01024)
human C4b (human) [3] = biological target: T2, human C4b (human) (UniProt P0C0L4)
T2 sequence: T1 sequence with T151A, G317D, L364P, S365C, I368L, H369D, S420N, A451V, R454L, A530S

Substance	C4b Screen Ref Fold (fold of CFI-HSA wild type) (human C4b (human) [1])	iC3b Screen Ref Fold (fold of CFI-HSA wild type) [2]	C4c EC50 (human C4b (human) [3]) [µM]	C4b Screen Ref Fold (fold vs CFI-HSA wild type) (human C4b (human) [1])	iC3b Screen Ref Fold (fold vs CFI-HSA wild type) [2]	C4c EC50 (nM) (human C4b (human) [3])
CFI-HSA variant S552G; Y553H (enzyme)	2.53	0.26	0.0745	–	–	–
CFI-HSA variant S552G; Y553H; F559L (enzyme)	2.42	0.23	0.224	–	–	–
CFI-HSA variant S552G; Y553H; F559L; V565I (enzyme)	3.1	0.27	0.0836	–	–	–
CFI-HSA variant S552G; Y553H; P558S (enzyme)	2.04	0.44	0.139	–	–	–
CFI-HSA variant S552G; Y553H; V565I (enzyme)	2.57	0.37	0.207	–	–	–
CFI-HSA variant S552G; Y553H; V565I; P558S (enzyme)	3.5	0.66	0.108	–	–	–
CFI-HSA variant Y20F; E38A; S250A; D425A; Y408L; N531G; E457G; E461Q; R462K; F464Y (enzyme)	–	–	–	6.31	0.77	106
CFI-HSA variant Y408F; N531G (enzyme)	–	–	–	5.78	1.24	75.7
CFI-HSA variant Y408L; D425R; E416A (enzyme)	0.43	2.26	–	–	–	221
CFI-HSA variant Y408L; E457G; D425K (enzyme)	5.47	1.21	0.103	–	–	–
CFI-HSA variant Y408L; E457G; D425R; E416A (enzyme)	2.03	3.02	–	–	–	181
CFI-HSA variant Y408L; E457G; E416A (enzyme)	2.11	2.51	–	–	–	170
CFI-HSA variant Y408L; E457G; E461Q; R462K (enzyme)	–	–	–	3.98	0.89	90.2
CFI-HSA variant Y408L; E457G; E461Q; R462K; F464Y (enzyme)	–	–	–	5.78	0.86	163
CFI-HSA variant Y408L; E457G; K534Q (enzyme)	5.24	0.97	0.0838	–	–	–
CFI-HSA variant Y408L; E457G; N422K (enzyme)	3.1	1.87	0.0436	–	–	–
CFI-HSA variant Y408L; E457G; N531G; E416A (enzyme)	4.66	2.15	–	–	–	34.8
CFI-HSA variant Y408L; E457G; N531G; K534Q (enzyme)	5.16	0.54	0.0264	–	–	–
CFI-HSA variant Y408L; E457G; N531G; N422K (enzyme)	3.66	0.95	0.0484	–	–	–
CFI-HSA variant Y408L; E457G; N531G; P535G (enzyme)	5.28	1.06	0.0505	–	–	–
CFI-HSA variant Y408L; E457G; N531G; P535G; D425K (enzyme)	5.01	1.12	0.0322	–	–	–
CFI-HSA variant Y408L; E457G; N531G; P535G; K534Q (enzyme)	4.68	1.2	0.0211	–	–	–
CFI-HSA variant Y408L; E457G; N531G; P535G; N422K (enzyme)	3.64	1.77	0.0597	–	–	–
